Assay [1] has as its target T1, B7-DC recombinant protein (义翘神州 10292-H08H-B) (UniProt Q9BQ51 20-219).
T1 sequence (looked up): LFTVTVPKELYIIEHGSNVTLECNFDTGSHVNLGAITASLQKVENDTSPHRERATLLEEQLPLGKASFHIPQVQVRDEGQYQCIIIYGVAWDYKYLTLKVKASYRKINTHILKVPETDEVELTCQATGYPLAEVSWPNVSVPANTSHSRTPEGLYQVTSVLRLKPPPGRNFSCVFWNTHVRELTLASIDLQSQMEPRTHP
Nature of the assay: ELISA, protein coated at 2 μg/mL, anti-human IgG Fc-HRP; N/A means 未检出结合活性.

The target of assay [2] is T2, B7-H2 recombinant protein (义翘神州 11559-H08H) (UniProt O75144 19-258).
T2 sequence (looked up): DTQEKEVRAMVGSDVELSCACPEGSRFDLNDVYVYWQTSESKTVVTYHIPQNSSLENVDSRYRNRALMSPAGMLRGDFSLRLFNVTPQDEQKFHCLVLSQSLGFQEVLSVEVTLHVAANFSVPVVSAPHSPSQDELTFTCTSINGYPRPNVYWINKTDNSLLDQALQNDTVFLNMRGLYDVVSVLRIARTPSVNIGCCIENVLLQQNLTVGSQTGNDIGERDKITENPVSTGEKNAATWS
The description is as above.

Assay [3] concerns the target T3, B7-H3 recombinant protein (义翘神州 11188-H08H) (UniProt Q5ZPR3 29-461).
T3 sequence (looked up): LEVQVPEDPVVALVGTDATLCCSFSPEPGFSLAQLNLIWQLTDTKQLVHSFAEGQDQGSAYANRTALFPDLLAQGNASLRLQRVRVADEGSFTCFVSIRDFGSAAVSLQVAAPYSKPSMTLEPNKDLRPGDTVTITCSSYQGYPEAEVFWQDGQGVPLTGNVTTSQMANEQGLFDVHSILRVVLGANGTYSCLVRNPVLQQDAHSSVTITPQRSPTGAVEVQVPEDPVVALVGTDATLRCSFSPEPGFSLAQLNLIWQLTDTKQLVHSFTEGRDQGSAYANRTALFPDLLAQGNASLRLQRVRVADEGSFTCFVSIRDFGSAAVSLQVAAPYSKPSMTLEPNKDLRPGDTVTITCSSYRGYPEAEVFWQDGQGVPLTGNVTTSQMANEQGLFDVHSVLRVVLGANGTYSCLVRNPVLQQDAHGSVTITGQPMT
The description is as above.

For assay [4], the target named is T4, B7-H4 recombinant protein (义翘神州 10738-H08H) (UniProt Q7Z7D3 25-258).
T4 sequence (looked up): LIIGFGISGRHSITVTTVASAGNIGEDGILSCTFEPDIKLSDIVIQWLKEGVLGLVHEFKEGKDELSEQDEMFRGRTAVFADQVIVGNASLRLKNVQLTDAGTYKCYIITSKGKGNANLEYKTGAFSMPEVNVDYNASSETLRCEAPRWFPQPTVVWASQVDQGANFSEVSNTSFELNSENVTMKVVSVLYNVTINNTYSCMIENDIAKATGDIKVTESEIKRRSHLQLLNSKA
The description is as above.

Assay [5] concerns the target T5, 人PD-L1 (全长蛋白, on cells) (human, UniProt Q9NZQ7 19-290).
T5 construct: whole, on cells; also called 人PD-L1-CHO; PD-L1-CHO
The experiment in a line: FACS competition on human PD-L1-CHO cells against biotin CD80 (1 μg/mL).

Assay [6] addresses T6, 恒河猴PD-L1 (全长蛋白, on CHO-s cells) (rhesus monkey, UniProt F6VEW6 19-290).
T6 construct: whole, on cells; also called 猴PD-L1-CHO
Nature of the assay: FACS on monkey PD-L1-CHO cells.

Assay [7] concerns the target T5, 人PD-L1 (全长蛋白, on cells). Nature of the assay: FACS on human PD-L1-CHO cells, PE anti-human IgG Fc.
Assay [8] deals with T7, 鼠PD-L1 (全长蛋白, on CHO-s cells) (mouse, UniProt Q9EP73 19-290).
T7 construct: whole, on cells; also called 小鼠PD-L1-CHO; 鼠PD-L1-CHO
T7 sequence (Q9EP73 19-290): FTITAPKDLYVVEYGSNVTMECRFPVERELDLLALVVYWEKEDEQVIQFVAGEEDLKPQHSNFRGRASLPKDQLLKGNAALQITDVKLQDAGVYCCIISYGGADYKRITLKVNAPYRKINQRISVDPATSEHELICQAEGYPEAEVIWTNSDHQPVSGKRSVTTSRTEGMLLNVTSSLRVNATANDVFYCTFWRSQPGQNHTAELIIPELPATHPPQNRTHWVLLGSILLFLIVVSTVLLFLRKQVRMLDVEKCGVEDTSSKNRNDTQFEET
The experiment in a line: FACS on mouse PD-L1-CHO cells, PE anti-human IgG Fc.

The target of assay [9] is T5, 人PD-L1 (全长蛋白, on cells). The experiment in a line: FACS competition on human PD-L1-CHO cells against biotin PD-1-Fc (1 μg/mL).

Broadly, the IC50 is the point on the concentration scale where inhibition reaches its midpoint. By EC50 is commonly meant the concentration that produces a half-maximal response.

T5 sequence (Q9NZQ7 19-290): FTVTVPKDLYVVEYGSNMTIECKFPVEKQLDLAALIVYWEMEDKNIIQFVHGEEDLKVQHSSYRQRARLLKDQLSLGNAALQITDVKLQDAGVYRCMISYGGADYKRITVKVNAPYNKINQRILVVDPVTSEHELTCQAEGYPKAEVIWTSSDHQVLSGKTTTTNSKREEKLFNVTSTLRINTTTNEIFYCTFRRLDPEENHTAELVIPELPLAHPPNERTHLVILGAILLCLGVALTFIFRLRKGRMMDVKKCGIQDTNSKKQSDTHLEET

B1: KN035 (Fc fusion)
chain: QVQLVESGGGLVQPGGSLRLSCAASGFTFSRRCKAWFRQAPGKERERVAKILTTSGSTYLADSVKGRFTISRDNSKNTVYLQMNSLRAEDTAVYYCAADSFEDPTCTLVTSSGAFQYWGQGTLVTVSS
notes: Control antibody made from the synthesised whole gene in ExpiCHO; the molecule is detected with anti-human IgG Fc; also called KN035(对照); 对照抗体KN035
Take B1: the binding result was “no binding” in [1]; “no binding” in assay [2]; “no binding” in assay [3]; “no binding” in assay [4]; “no binding (tested: 20μg/mL)” in assay [8]. Also, the IC50 with 人PD-L1 (全长蛋白, on cells) [5] was 0.631 µg/mL; with 人PD-L1 (全长蛋白, on cells) [9] it was 0.39 µg/mL. Moreover, the EC50 in assay [6] turned out to be 0.21 µg/mL; with 人PD-L1 (全长蛋白, on cells) [7], 0.39 µg/mL.

The record behind these values is CN111848800A (SANYOU BIOPHARMACEUTICALS CO LTD, dated 2020).
